± gives the uncertainty stated by the source.
Assay: protein stability index of a GFP-peptide fusion (yeast GPS) (PSI 1-4); higher = more stable; sorted into four equal gates, so the index is relative within each strain
Outline: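 Tiled yeast protein peptides of 17 residues were each joined downstream of GFP, on plasmids that also express Cherry. The pooled library was maintained in yeast, and mid-log cultures in leucine-free medium were sorted into four equal gates on the GFP/Cherry ratio. Plasmids from every gate were amplified by PCR and sequenced on Illumina, with barcodes linking reads to strains. The protein stability index of a peptide is its gate-number-weighted read frequency summed over the gates.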

Row | Sequence | protein stability index (doa10∆) | protein stability index (pdr5∆) | protein stability index (san1∆) | protein stability index (ubr1∆)
1 | EKRHKNVPVHVSPAFRV [RPS11A] | 1.8 ± 0.051 | 2.72 ± 0.077 | 2.9 ± 0.07 | 2.75 ± 0.053
2 | MLTIARLGFFYNDQLYV [RPN7] | 2.13 ± 0.093 | 1.66 ± 0.19 | 1.47 ± 0.29 | 2.2 ± 0.19
3 | TTIEEIFLHSLPVKEFQ [RPS2] | 2.82 ± 0.067 | 2.78 ± 0.069 | 3.01 ± 0.067 | 2.79 ± 0.073
4 | LKNVEETQEIKENDTVM [ESC2] | 2.86 ± 0.097 | 3 ± 0.075 | 2.92 ± 0.14 | 3.16 ± 0.074
5 | FVPVPALSAYHKVQTKL [RPS7B] | 2.42 ± 0.046 | 2.52 ± 0.046 | 2.27 ± 0.057 | 2.55 ± 0.032
6 | QNKKNLKWVAVVPDLGH [SSN2] | 2.67 ± 0.085 | 3.07 ± 0.051 | 2.81 ± 0.07 | 3.02 ± 0.1
7 | EFETPTFLVSNDDEVSQ [RPN14] | 2.69 ± 0.092 | 2.89 ± 0.084 | 2.72 ± 0.079 | 2.77 ± 0.13
8 | KLVRESELLGGTFKSTL [QCR2] | 2.53 ± 0.12 | 2.82 ± 0.1 | 2.35 ± 0.093 | 3.18 ± 0.063
9 | ASHNEKDQDSQIELSCN [SRP72] | 2.85 ± 0.079 | 2.41 ± 0.079 | 2.9 ± 0.051 | 3.1 ± 0.058
10 | VELHGKRKLDIGKDTFV [PRP8] | 3.26 ± 0.29 | 2.94 ± 0.13 | 2.47 ± 0.17 | 2.21 ± 0.11
11 | YAVKAVENGTTSIGIKC [PRE10] | 2.04 ± 0.11 | 2.02 ± 0.076 | 1.36 ± 0.21 | 2.77 ± 0.19
12 | ISKTTLTLDPRYIWRSL [RPN3] | 2.75 ± 0.1 | 2.61 ± 0.082 | 2.5 ± 0.085 | 2.6 ± 0.15
13 | ITSGGFLLKAYINVSRG [SRB5] | 2.23 ± 0.17 | 2.48 ± 0.12 | 2.32 ± 0.15 | 2.53 ± 0.15
14 | VRNYKPLINRLKHYNGY [SWI1] | 1.79 ± 0.048 | 2.2 ± 0.045 | 2.57 ± 0.06 | 2.54 ± 0.039
15 | PWFWLLPLWHLLNRIPR [POP1] | 2.57 ± 0.084 | 1.56 ± 0.054 | 1.33 ± 0.12 | 1.26 ± 0.046
16 | EGHLAEIRAKEYKTSSD [SRB2] | 3.22 ± 0.11 | 3.29 ± 0.081 | 3.18 ± 0.051 | 3.26 ± 0.078
17 | SDDDNIGQSEELSDKEI [ISW2] | 3.31 ± 0.1 | 3.44 ± 0.09 | 3.31 ± 0.08 | 3.41 ± 0.12
18 | EQGIELEHIDSKSEFAH [FAS2] | 2.88 ± 0.096 | 2.15 ± 0.12 | 3.08 ± 0.13 | 2.15 ± 0.16
19 | QKNYADPEKDSINATAL [SIN4] | 1.9 ± 0.042 | 1.71 ± 0.047 | 1.61 ± 0.087 | 1.59 ± 0.032
20 | QFCGIKERNSLKKLKAM [BRR2] | 3 ± 0.23 | 3.25 ± 0.12 | 2.25 ± 0.27 | 2.99 ± 0.11
21 | VACLFITISIHGKPTKG [SSN8] | 1.19 ± 0.061 | 1.24 ± 0.061 | 1.28 ± 0.16 | 1.5 ± 0.11
22 | KRYRLKESQLPRIQRAD [RPB5] | 2.86 ± 0.17 | 3.16 ± 0.15 | 3.02 ± 0.1 | 3.07 ± 0.082
23 | NKQYELFMKSLIENCKK [SWI1] | 2.58 ± 0.053 | 2.85 ± 0.061 | 2.77 ± 0.046 | 2.66 ± 0.036
24 | EEVQQAQTEIKLFNKWS [RPS5] | 3.17 ± 0.1 | 3.21 ± 0.096 | 3.25 ± 0.076 | 3.27 ± 0.075
25 | IIAVKGSGSRLNRLPAA [RPL23A] | 1.42 ± 0.051 | 1.17 ± 0.049 | 1.23 ± 0.099 | 1.42 ± 0.049
26 | GASINSMKANTSTNPNG [ARP7] | 2.72 ± 0.089 | 3.19 ± 0.089 | 2.74 ± 0.067 | 2.93 ± 0.058
27 | TGWITQSTPVLLNHGER [RPN1] | 2.61 ± 0.061 | 2.23 ± 0.044 | 1.88 ± 0.056 | 2.53 ± 0.037

Row | Sequence | protein stability index (doa10∆) | protein stability index (pdr5∆) | protein stability index (san1∆) | protein stability index (ubr1∆)
28 | ITTFVKRSTVPLNDGFV [YML103C/NUP188] | 2.37 ± 0.066 | 2.32 ± 0.093 | 1.91 ± 0.11 | 2.35 ± 0.053
29 | FIEVRNFLGDKKIRNVP [RPL9A] | – | – | – | 3.16 ± 0.12
30 | LVGSEIYEKLKNYLKNY [CDC53] | – | 1.21 ± 0.12 | 1.09 ± 0.16 | –
31 | INHTILGKLQDVFNLLP [RPN8] | 3.16 ± 0.066 | 3.17 ± 0.081 | 2.84 ± 0.048 | 2.96 ± 0.046
32 | EIVNMVPSHVPQVLINR [SIR2] | 3.13 ± 0.11 | 2.93 ± 0.079 | 2.53 ± 0.11 | 2.88 ± 0.054
33 | MKLSMPPEVTSSNCHVR [POP1] | 2.4 ± 0.066 | 2.6 ± 0.075 | 2.32 ± 0.076 | 2.48 ± 0.042
34 | GDYNNTVYSSEQYIQEL [SMC3] | 2.9 ± 0.11 | 3.2 ± 0.11 | 3.22 ± 0.074 | 3.14 ± 0.042
35 | EAIRDPKNSSSPVQIAF [SSN8] | 2.55 ± 0.17 | 2.96 ± 0.15 | 1.92 ± 0.22 | 2.98 ± 0.12
36 | KLYFQLFLNTGCLSVLY [SRP68] | 1.47 ± 0.038 | 1.19 ± 0.041 | 1.19 ± 0.1 | 1.21 ± 0.043
37 | LEVFHHFFKWIEFIVYH [SRB8] | 1.13 ± 0.054 | 1.11 ± 0.047 | 1.08 ± 0.17 | 1.06 ± 0.041
38 | ELQMRSFLKEGDLLNAE [RRP4] | 2.71 ± 0.071 | 3.27 ± 0.11 | 3.07 ± 0.087 | 3.23 ± 0.08
39 | IDSSNLPLQAQQQLYGG [SWI1] | 2.91 ± 0.057 | 3.1 ± 0.062 | 2.75 ± 0.077 | 2.87 ± 0.043
40 | QERKDFLKKVMDTIQDK [ECM29] | 3.12 ± 0.13 | 3.41 ± 0.12 | 3.35 ± 0.11 | 3.17 ± 0.072
41 | KLLDNIQEYQLCDNFNH [COR1] | 2.35 ± 0.074 | 2.31 ± 0.091 | 2.44 ± 0.086 | 2.2 ± 0.064
42 | GNNVQENELVITSIPKP [RMP1] | 3.42 ± 0.14 | 3.4 ± 0.11 | 3.37 ± 0.065 | 3.15 ± 0.064
43 | RHIKSKHEDLSLEQRQE [RPN4] | 2.97 ± 0.069 | 3.05 ± 0.086 | 2.79 ± 0.096 | 3.03 ± 0.066
44 | FDNKSTSEEQEALLRSL [SNF2] | 3.32 ± 0.072 | 3.6 ± 0.18 | 2.68 ± 0.26 | 2.73 ± 0.2
45 | GGVGSMGAINNNIPSLT [SNF6] | 3.26 ± 0.11 | 3.34 ± 0.09 | 3.39 ± 0.072 | 3.32 ± 0.1
46 | QASDPSKKKKNIKKKDT [RPC53] | 3.26 ± 0.17 | 3.5 ± 0.13 | 3.2 ± 0.088 | 3.3 ± 0.21
47 | VRMLASPMLYKVPDISS [BRR2] | 2.28 ± 0.073 | 2.77 ± 0.078 | 1.96 ± 0.1 | 2.28 ± 0.051
48 | KRQYVKQFLTKDLKFPL [RPL20A] | 3 ± 0.055 | 2.94 ± 0.061 | 2.76 ± 0.063 | 2.83 ± 0.04
49 | MAISKNLPILKNHFRKH [RPL13A] | 2.89 ± 0.1 | 2.89 ± 0.079 | 2.87 ± 0.081 | 2.54 ± 0.19
50 | IEKTESVDKKVDSGEER [SWI3] | 3.26 ± 0.098 | 3.3 ± 0.14 | 3.36 ± 0.055 | 3.46 ± 0.066
51 | TNQDGLKFVKVRVRTTK [RPB2] | 2.42 ± 0.084 | 3.05 ± 0.12 | 3.3 ± 0.1 | 3.2 ± 0.088
52 | GFIENCNGSALVEARSL [MTR3] | 2.66 ± 0.1 | 2.83 ± 0.085 | 2.23 ± 0.12 | 2.15 ± 0.12
53 | LAMVIIKEFVDDLKKDH [DSN1] | 2.74 ± 0.2 | 2.92 ± 0.16 | 2.88 ± 0.12 | 2.85 ± 0.085

Reference: the supplement of paper PMC9732359
